# In paper PMC9913602:
# How the values were obtained:
# [1] = target: HCV NS3/NS4A protease complex (NS3 protease domain residues 1-182 preincubated with synthetic NS4A cofactor peptide) (hepatitis C virus); experiment: single-turnover cleavage kinetics (Western blot of remaining substrate); 0.5 μM IKKε with 5 μM NS3 + 244 μM NS4A peptide, 23 °C, digestion buffer (50 mM HEPES pH 7.8, 0.5 mM EDTA, 25% glycerol, 10 mM DTT, 0.25 M KCl, 0.05 M NaCl, 0.2% CHAPS); Kd estimated by Equation (2) from the constant c of the single-exponential fit, assumed to be unbound kinase
# [2] = target: HCV NS3/NS4A protease complex (NS3 protease domain residues 1-182 preincubated with synthetic NS4A cofactor peptide) (hepatitis C virus); experiment: single-turnover cleavage kinetics (Western blot of remaining substrate); 0.1 μM IKKε with 5 μM NS3 + 244 μM NS4A peptide, 23 °C, digestion buffer (50 mM HEPES pH 7.8, 0.5 mM EDTA, 25% glycerol, 10 mM DTT, 0.25 M KCl, 0.05 M NaCl, 0.2% CHAPS); Kd estimated by Equation (2) from the constant c of the single-exponential fit, assumed to be unbound kinase
substance,measurement,setting,value
Recombinant human IKKε (Inhibitor of κB kinase ε) (from UniProt Q14164 1-716) (enzyme),Kd,[1],1.68 µM
same,Kd,[2],4.57 µM
